From US20150344570A1 (published 2015)

T1: FcγRIIb extracellular domain with C-terminal His tag (human, UniProt P31994 43-217)
T1 construct: extracellular domain; also called 2b; FcgRIIb; not shown: His tag at the C terminus
T1 sequence (looked up): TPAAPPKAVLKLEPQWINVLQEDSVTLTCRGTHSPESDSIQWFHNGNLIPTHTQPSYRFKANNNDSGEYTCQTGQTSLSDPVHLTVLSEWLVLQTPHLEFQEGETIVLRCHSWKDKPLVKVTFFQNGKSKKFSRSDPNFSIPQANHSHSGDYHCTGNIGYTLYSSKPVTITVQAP

T2: FcγRIIa H (human, UniProt P12318 34-217)
T2 construct: extracellular domain; also called FcgRIIa H; FcγRIIa type H
T2 sequence (looked up): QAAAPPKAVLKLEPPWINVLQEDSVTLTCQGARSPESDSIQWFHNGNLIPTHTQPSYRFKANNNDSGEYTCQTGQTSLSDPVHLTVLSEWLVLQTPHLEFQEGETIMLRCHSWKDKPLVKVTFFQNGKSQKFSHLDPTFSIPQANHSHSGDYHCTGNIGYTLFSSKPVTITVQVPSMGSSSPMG

T3: FcγRIIb (human, UniProt P31994 43-217)
T3 construct: extracellular domain; also called FcgRIIb; 2b
T3 sequence (looked up): T1 sequence (looked up)

B1: GpH7-A5/GpH7-B3 variant G237_02A/GpL16-k0 (antibody, human IgG1, kappa)
heavy 1: not shown
heavy 2: not shown
light: DIVMTQSPLSLPVTPGEPASISCQASESLVHSNRNTYLHWYLQKPGQSPQLLIYKVSNRFSGVPDRFSGSGSGTDFTLKISRVEAEDVGVYYCSQNTHVPPTFGQGTKVEIERTVAAPSVFIFPPSDEQLKSGTASVVCLLNNFYPREAKVQWKVDNALQSGNSQESVTEQDSKDSTYSLSSTLTLSKADYEKHKVYACEVTHQGLSSPVTKSFNRGEC
notes: IgG1, anti-glypican-3; also called He Ab
B2: GpH7-A5/GpH7-B3 variant G236_09D/GpL16-k0 (antibody, human IgG1, kappa)
heavy 1: not shown
heavy 2: not shown
light: B1 light
notes: as for B1
B3: GpH7-A5/GpH7-B3 variant G236_10E/GpL16-k0 (antibody, human IgG1, kappa)
heavy 1: not shown
heavy 2: not shown
light: B1 light
notes: as for B1
B4: GpH7-A5/GpH7-B3 variant G236_11K/GpL16-k0 (antibody, human IgG1, kappa)
heavy 1: not shown
heavy 2: not shown
light: B1 light
notes: as for B1
B5: GpH7-A5/GpH7-B3 variant G236_13S/GpL16-k0 (antibody, human IgG1, kappa)
heavy 1: not shown
heavy 2: not shown
light: B1 light
notes: as for B1
B6: GpH7-A5/GpH7-B3 variant G236_18N/GpL16-k0 (antibody, human IgG1, kappa)
heavy 1: not shown
heavy 2: not shown
light: B1 light
notes: as for B1
B7: GpH7-A5/GpH7-B3 variant G237_04F/GpL16-k0 (antibody, human IgG1, kappa)
heavy 1: not shown
heavy 2: not shown
light: B1 light
notes: as for B1
B8: GpH7-A5/GpH7-B3 variant G237_05P/GpL16-k0 (antibody, human IgG1, kappa)
heavy 1: not shown
heavy 2: not shown
light: B1 light
notes: as for B1
B9: GpH7-A5/GpH7-B3 variant G237_06M/GpL16-k0 (antibody, human IgG1, kappa)
heavy 1: not shown
heavy 2: not shown
light: B1 light
notes: as for B1
B10: GpH7-A5/GpH7-B3 variant G237_08L/GpL16-k0 (antibody, human IgG1, kappa)
heavy 1: not shown
heavy 2: not shown
light: B1 light
notes: as for B1
B11: GpH7-A5/GpH7-B3 variant G237_09D/GpL16-k0 (antibody, human IgG1, kappa)
heavy 1: not shown
heavy 2: not shown
light: B1 light
notes: as for B1
B12: GpH7-A5/GpH7-B3 variant G237_10E/GpL16-k0 (antibody, human IgG1, kappa)
heavy 1: not shown
heavy 2: not shown
light: B1 light
notes: as for B1
B13: GpH7-A5/GpH7-B3 variant G237_13S/GpL16-k0 (antibody, human IgG1, kappa)
heavy 1: not shown
heavy 2: not shown
light: B1 light
notes: as for B1
B14: GpH7-A5/GpH7-B3 variant G237_15Y/GpL16-k0 (antibody, human IgG1, kappa)
heavy 1: not shown
heavy 2: not shown
light: B1 light
notes: as for B1
B15: GpH7-A5/GpH7-B3 variant G237_16H/GpL16-k0 (antibody, human IgG1, kappa)
heavy 1: not shown
heavy 2: not shown
light: B1 light
notes: as for B1
B16: GpH7-A5/GpH7-B3 variant G237_18N/GpL16-k0 (antibody, human IgG1, kappa)
heavy 1: not shown
heavy 2: not shown
light: B1 light
notes: as for B1
B17: GpH7-A5/GpH7-B3 variant G237_19Q/GpL16-k0 (antibody, human IgG1, kappa)
heavy 1: not shown
heavy 2: not shown
light: B1 light
notes: as for B1
B18: GpH7-A5/GpH7-B3 variant G237_20W/GpL16-k0 (antibody, human IgG1, kappa)
heavy 1: not shown
heavy 2: not shown
light: B1 light
notes: as for B1
B19: GpH7-A5/GpH7-B3 variant L234_09D/GpL16-k0 (antibody, human IgG1, kappa)
heavy 1: not shown
heavy 2: not shown
light: B1 light
notes: as for B1
B20: GpH7-A5/GpH7-B3 variant L235_04F/GpL16-k0 (antibody, human IgG1, kappa)
heavy 1: not shown
heavy 2: not shown
light: B1 light
notes: as for B1
B21: GpH7-A5/GpH7-B3 variant L235_15Y/GpL16-k0 (antibody, human IgG1, kappa)
heavy 1: not shown
heavy 2: not shown
light: B1 light
notes: as for B1
B22: GpH7-A5/GpH7-B3 variant L235_16H/GpL16-k0 (antibody, human IgG1, kappa)
heavy 1: not shown
heavy 2: not shown
light: B1 light
notes: as for B1
B23: GpH7-A5/GpH7-B3 variant L235_20W/GpL16-k0 (antibody, human IgG1, kappa)
heavy 1: not shown
heavy 2: not shown
light: B1 light
notes: as for B1
B24: GpH7-A5/GpH7-B3 variant P238_01G/GpL16-k0 (antibody, human IgG1, kappa)
heavy 1: not shown
heavy 2: not shown
light: B1 light
notes: as for B1
B25: GpH7-A5/GpH7-B3 variant P238_02A/GpL16-k0 (antibody, human IgG1, kappa)
heavy 1: not shown
heavy 2: not shown
light: B1 light
notes: as for B1
B26: GpH7-A5/GpH7-B3 variant G237_20W/GpL16-k0 (antibody, human IgG1, kappa)
heavy 1: not shown
heavy 2: not shown
light: B1 light
notes: Heterodimerized antibody, alteration in one H chain only; also called He Ab G237W
B27: GpH7-A5/GpH7-B3 variant L234_09D/GpL16-k0 (antibody, human IgG1, kappa)
heavy 1: not shown
heavy 2: not shown
light: B1 light
notes: Heterodimerized antibody, alteration in one H chain only; also called He Ab L234D
B28: GpH7-A5/GpH7-B3 variant L234_10E/GpL16-k0 (antibody, human IgG1, kappa)
heavy 1: not shown
heavy 2: not shown
light: B1 light
notes: Heterodimerized antibody, alteration in one H chain only; also called He Ab L234E
B29: GpH7-A5/GpH7-B3 variant L235_09D/GpL16-k0 (antibody, human IgG1, kappa)
heavy 1: not shown
heavy 2: not shown
light: B1 light
notes: Heterodimerized antibody, alteration in one H chain only; also called He Ab L235D
B30: GpH7-A5/GpH7-B3 variant L235_20W/GpL16-k0 (antibody, human IgG1, kappa)
heavy 1: not shown
heavy 2: not shown
light: B1 light
notes: Heterodimerized antibody, alteration in one H chain only; also called He Ab L235W
B31: GpH7-A5/GpH7-B3 variant P238_01G/GpL16-k0 (antibody, human IgG1, kappa)
heavy 1: not shown
heavy 2: not shown
light: B1 light
notes: Heterodimerized antibody, alteration in one H chain only; also called He Ab P238G
B32: GpH7-A5/GpH7-B3 variant P238_03V/GpL16-k0 (antibody, human IgG1, kappa)
heavy 1: not shown
heavy 2: not shown
light: B1 light
notes: Heterodimerized antibody, alteration in one H chain only; also called He Ab P238V
B33: GpH7-A5/GpH7-B3 variant P238_04F/GpL16-k0 (antibody, human IgG1, kappa)
heavy 1: not shown
heavy 2: not shown
light: B1 light
notes: Heterodimerized antibody, alteration in one H chain only; also called He Ab P238F
B34: GpH7-A5/GpH7-B3 variant P238_06M/GpL16-k0 (antibody, human IgG1, kappa)
heavy 1: not shown
heavy 2: not shown
light: B1 light
notes: Heterodimerized antibody, alteration in one H chain only; also called He Ab P238M

Target: T1, FcγRIIb extracellular domain with …
Assay: SPR (Biacore), relative to GpH7-A5/GpH7-B3/GpL16-k0 = 100

| Binder | He/Con_2b |
| --- | --- |
| B1 | 124 % (control = 100) |
| B2 | 167 % (control = 100) |
| B3 | 110 % (control = 100) |
| B4 | 49.8 % (control = 100) |
| B5 | 96.7 % (control = 100) |
| B6 | 96.4 % (control = 100) |
| B7 | 149 % (control = 100) |
| B8 | 24.6 % (control = 100) |
| B9 | 130 % (control = 100) |
| B10 | 148 % (control = 100) |
| B11 | 223 % (control = 100) |
| B12 | 114 % (control = 100) |
| B13 | 111 % (control = 100) |
| B14 | 152 % (control = 100) |
| B15 | 55.2 % (control = 100) |
| B16 | 180 % (control = 100) |
| B17 | 108 % (control = 100) |
| B18 | 193 % (control = 100) |
| B19 | 150 % (control = 100) |
| B20 | 118 % (control = 100) |
| B21 | 149 % (control = 100) |
| B22 | 76.9 % (control = 100) |
| B23 | 147 % (control = 100) |
| B24 | 56 % (control = 100) |
| B25 | 57.4 % (control = 100) |

Target: T4, FcγRIIIa extracellular domain with C-terminal His tag (human, UniProt P08637 17-208)
T4 construct: extracellular domain; also called 3a; FcgRIIIa; not shown: His tag at the C terminus
T4 sequence (P08637 17-208): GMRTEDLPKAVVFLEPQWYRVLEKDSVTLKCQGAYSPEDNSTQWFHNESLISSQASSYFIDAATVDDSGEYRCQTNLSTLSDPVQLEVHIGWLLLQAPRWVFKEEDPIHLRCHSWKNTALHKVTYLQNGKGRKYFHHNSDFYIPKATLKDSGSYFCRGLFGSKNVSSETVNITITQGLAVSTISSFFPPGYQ
Assay: as above

| Binder | He/Con_3a |
| --- | --- |
| B1 | 48.8 % (control = 100) |
| B2 | 71.2 % (control = 100) |
| B3 | 70.7 % (control = 100) |
| B4 | 18.6 % (control = 100) |
| B5 | 64.8 % (control = 100) |
| B6 | 37.8 % (control = 100) |
| B7 | 25.3 % (control = 100) |
| B8 | 10.9 % (control = 100) |
| B9 | 31.9 % (control = 100) |
| B10 | 24.9 % (control = 100) |
| B11 | 17.7 % (control = 100) |
| B12 | 25.4 % (control = 100) |
| B13 | 38.4 % (control = 100) |
| B14 | 22.1 % (control = 100) |
| B15 | 17.2 % (control = 100) |
| B16 | 20.3 % (control = 100) |
| B17 | 43.3 % (control = 100) |
| B18 | 19.7 % (control = 100) |
| B19 | 117 % (control = 100) |
| B20 | 79.1 % (control = 100) |
| B21 | 80.6 % (control = 100) |
| B22 | 59.1 % (control = 100) |
| B23 | 76.4 % (control = 100) |
| B24 | 33 % (control = 100) |
| B25 | 31.4 % (control = 100) |

Target: T2, FcγRIIa H
Assay: SPR (Biacore), antibody captured, FcγR analyte; binding relative to GpH7-A5/GpH7-B3/GpL16-k0 = 100

| Binder | He/Con_2aH |
| --- | --- |
| B26 | 31.6 % of control |
| B27 | 89.9 % of control |
| B28 | 88.3 % of control |
| B29 | 75.8 % of control |
| B30 | 118 % of control |
| B31 | 37.3 % of control |
| B32 | 89 % of control |
| B33 | 65.4 % of control |
| B34 | 47.6 % of control |

Target: T3, FcγRIIb
Assay: as above

| Binder | He/Con_2b |
| --- | --- |
| B26 | 193 % of control |
| B27 | 150 % of control |
| B28 | 118 % of control |
| B29 | 106 % of control |
| B30 | 147 % of control |
| B31 | 56 % of control |
| B32 | 120 % of control |
| B33 | 312 % of control |
| B34 | 174 % of control |

Target: T4, FcγRIIIa extracellular domain with …
Assay: SPR (Biacore); ratio of He/Con_3a (FcγRIIIa) to He/Con_2b (FcγRIIb)

| Binder | He_3a/2b (IIIa/IIb) |
| --- | --- |
| B1 | 0.39 |
| B2 | 0.43 |
| B3 | 0.64 |
| B4 | 0.37 |
| B5 | 0.67 |
| B6 | 0.39 |
| B7 | 0.17 |
| B8 | 0.44 |
| B9 | 0.25 |
| B10 | 0.17 |
| B11 | 0.08 |
| B12 | 0.22 |
| B13 | 0.35 |
| B14 | 0.14 |
| B15 | 0.31 |
| B16 | 0.11 |
| B17 | 0.4 |
| B18 | 0.1 |
| B19 | 0.78 |
| B20 | 0.67 |
| B21 | 0.54 |
| B22 | 0.77 |
| B23 | 0.52 |
| B24 | 0.59 |
| B25 | 0.55 |

Target: T2, FcγRIIa H
Assay: SPR (Biacore); He/Con_2aH divided by He/Con_2b (FcγRIIa H over FcγRIIb)

| Binder | He_2aH/2b (IIaH/IIb) |
| --- | --- |
| B26 | 0.16 ratio |
| B27 | 0.6 ratio |
| B28 | 0.75 ratio |
| B29 | 0.71 ratio |
| B30 | 0.8 ratio |
| B31 | 0.66 ratio |
| B32 | 0.74 ratio |
| B33 | 0.21 ratio |
| B34 | 0.27 ratio |
